Reference: paper PMC5483951

Molecular target: hnRNP F/H (human (endogenous in 293))
Test: co-IP; extracts of 293 cells expressing FLAG-SRSF10, RS1-FLAG, RS2-FLAG or RS1-ΔΔ-FLAG, lysed in NET-2 buffer (50 mM Tris-HCl pH 7.4, 150 mM NaCl, 0.05% NP-40), treated with RNase A; anti-hnRNP F, H or K antibodies on protein G magnetic beads, overnight at 4°C; blot with anti-FLAG; cells treated or not with oxaliplatin

Sequence of FLAG-SRSF10 (O75494 whole entry): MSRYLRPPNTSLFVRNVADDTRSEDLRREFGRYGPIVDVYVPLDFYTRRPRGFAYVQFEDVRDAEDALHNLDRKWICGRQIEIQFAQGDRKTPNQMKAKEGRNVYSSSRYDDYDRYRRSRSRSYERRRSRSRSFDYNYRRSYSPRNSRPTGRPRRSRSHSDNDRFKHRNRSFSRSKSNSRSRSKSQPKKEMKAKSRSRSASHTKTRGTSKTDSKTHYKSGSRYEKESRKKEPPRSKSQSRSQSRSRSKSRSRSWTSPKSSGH

percent of total SRSF10 associated: 0.5 to 1%
Substance: FLAG-SRSF10 (from UniProt O75494 1-262) (natural protein)
